Laboratory results published in article PMC7055916.

Molecular target: T. brucei PNUTS with PTP tag, bloodstream form (T. brucei)
Assay: co-sedimentation; extracts of bloodstream form T. brucei expressing PNUTS-PTP and JBP3-HA or Wdr82-HA on 5-50% sucrose gradients, 38000 rpm 18 hours, fractions analysed by western blot

| stoichiometry N | Substance |
| --- | --- |
| 1 | T. brucei Wdr82 with 3x HA tag, bloodstream form (natural protein) |
| 1 | T. brucei JBP3 with 3x HA tag, bloodstream form (natural protein) |
